What was measured:
[1] = biological target: HLA-A*02:01 in complex with WT1 aa126-134 peptide …, on T2 cells expressing the PresentER RMF minigene (human); experiment: >
[2] = biological target: HLA-A*02:01 in complex with PRAME300-309 peptide …, on T2 cells expressing the PresentER ALY minigene (human); experiment: flow cytometry histograms, T2 cells expressing PresentER minigenes

ESK1 TCR mimic (TCRm) monoclonal antibody
fluorescence units (FU) [1]: 1000 > | fluorescence units (FU) [2]: < 1000 FU

Pr20 TCR mimic (TCRm) monoclonal antibody
fluorescence units (FU) [2]: > 1100 FU

— patent publication US20190227063A1
